Assay results as given in patent publication US20210102933.

Experiments:
[1] = system: T1, FRET peptide substrate EDANS-A-L-E-V-L-F-Q/G-P-K-DABCYL
T1 sequence: ALEVLFXPK

[2] = system: FTC-casein

human rhinovirus 3C protease
fluorescent signal upon cleavage of the FRET peptide substrate in microwells (18 hours, 100 µg/mL peptide) [1]: The secreted enzyme successfully cleaved the substrate, resulting in a fluorescent signal

trypsin
fluorescent signal in trypsin cleavage assay in microwells (0.5 µg/ml trypsin, 10 µg/ml FTC-casein, 1 and 18 hours) [2]: the intensity of the observed fluorescent signal was dependent on the time of incubation | fluorescent signal in trypsin cleavage assay in microwells (0.05, 0.5 and 5 µg/ml trypsin, 10 µg/ml FTC-casein, 1 hour) [2]: the intensity of the observed fluorescent signal was dependent on the concentration of trypsin in the microwells
